Data on two molecules can be found in article PMC4427203, “Tah1 helix-swap dimerization prevents mixed Hsp90 co-chaperone complexes” (Acta Crystallographica Section D: Biological Crystallography, 2015).

Assay [1] has as its target T1, Tah1 (full-length yeast Tah1) (S. cerevisiae, UniProt P25638 1-111).
T1 construct: Tah1, yeast (S. cerevisiae), synthetic full-length gene expressed from pRSET-A; In the crystal two Tah1 chains form a helix-swapped dimer; in solution Tah1 is mainly monomeric; also called TPR domain of Tah1
T1 sequence (looked up): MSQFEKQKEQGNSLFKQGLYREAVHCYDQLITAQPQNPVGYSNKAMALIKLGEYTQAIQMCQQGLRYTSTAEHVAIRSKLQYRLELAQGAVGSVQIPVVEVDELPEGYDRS
Kind of assay: crystal structure; Tah1 at 10 mg/ml with 5 mM … peptide; sitting drop, 100 mM MES pH 6.0, 200 mM ammonium chloride, 20% PEG 6000, 4°C; refined to 2 Å. Conditions: both partners purified.

Assay [2] addresses T2, Flag-Tah1 (S. cerevisiae, UniProt P25638 1-111).
T2 construct: Tah1, yeast
T2 sequence (looked up): T1 sequence (looked up)
The experiment in a line: pull-down; 70 µM Flag-Tah1 and Hsp90 600-709 with increasing AIP 172-315 or full-length AIP (5-10 molar excess); 20 mM HEPES pH 7.5, 150 mM NaCl, 10% glycerol, 0.5% IGEPAL, 2 mM EDTA; captured on anti-Flag M2 magnetic beads; eluate on SDS-PAGE. Conditions: both partners purified.

B1: Hsp90 peptide EDASRMEEVD (peptide)
peptide: EDASRMEEVD
notes: C-terminal peptide of Hsp90 with the conserved MEEVD motif; also called MEEVD peptide of Hsp90; SRMEEVD peptide
With B1, the binding result in assay [1] was “binds”.

B2: Hsp90 600-709 (domain or fragment)
chain: not shown
notes: Hsp90 C-terminal fragment, residues 600-709; Used at 70 µM in the pull-down; also called cHsp90
As for B2, the binding result in assay [2] is on record as “binds”.
